Experimental data: patent US11957748B2, “Vaccine to pathogenic immune activation cells during infections” (priority 2019, dated 2024)

The sequences below were run against T1, HLA-E (HLA-E*01033-transfected K562) (Homo sapiens, UniProt P13747) (assay: Peptide-HLA molecule binding assay (HLA-E stabilization)). Conditions: HLA-E Transfected K562 pulsed overnight at 26° C.
T1 construct: expressed in transfected cells; host or cells: K562 (K562/HLA-E, kept under G-418 selection)
Description: Peptide binding was assessed by HLA-E stabilization assays using HLA-E*01033-transfected derivative of K562 (K562/HLA-E) cell lines. Briefly, cells were re-suspended in serum-free medium at 1×10^6 cells/ml. Where appropriate, a peptide (see Table 1) was added. After overnight incubation at 26° C., cells were washed with PBS to remove free peptides. Next, HLA surface expression was monitored after staining with anti-HLA-E mAb. Analysis was done on a FACScalibur cytometer (BD Biosciences). Results are presented as the MFI of cells stained with anti-HLA-E mAb.

| Sequence | MFI (HLA-E surface expression, anti-HLA-E mAb) |
| --- | --- |
| TALSEGATP (MHCIb/E-binding antigen) | 8530 |
| RIRTWKSLV (HIV-1 Pol derived peptide; MHCIb/E-binding antigen) | 6580 |
| PEIVIYDYM (HIV-1 Pol derived peptide; MHCIb/E-binding antigen) | 7320 |
| RMYSPVSIL (MHCIb/E-binding antigen) | 8240 |
| VMATRRNVL (MBt derived peptide) [reference compound] | 7523 |
